Laboratory results taken from patent publication US20160009800A1 (XOMA US, published 2016).

Assays:
mouse insulin receptor [1] = biological target: T1, mouse insulin receptor (mouse, UniProt P15208 28-1372); experiment: FACS on mouse INSR; conditions not given on the sheet [cont'd]
T1 construct: whole, on cells; also called muINSR; mINSR

human insulin receptor [2] = biological target: T2, human insulin receptor (human, UniProt P06213 28-1382); experiment: KinExA antibody depletion by hINSR8-CHOK1 cells, without insulin
T2 construct: whole, on cells; Uncomplexed receptor on serum-starved cells (CHOK1 transfectants or IM-9); also called hINSR; INSR
Description: (§1) Beads were rotated at room temperature for 6 hours then allowed to settle. Supernatant was replaced with PBS with 50 mg/mL BSA Fraction V (Sigma-Aldrich, St. Louis, Mo.) and rotated overnight at 4° C. […] On the KinExA 3000 the sample was injected at 0.25 mL/minute for 240 seconds, then rinsed for 60 seconds in running buffer (PBS with 0.05% sodium azide), then 240 seconds of the detection solution was injected, followed by a final 90 second wash at 1 mL/minute. The difference in voltage from an early initial time-point and a time point near the end of the run was measured and used to calculate affinities. The INSR concentration on the cells was estimated at 2.5×10⁵ receptors/cell. Affinity was determined using the KinExA software (Sāpidyne, Boise Id.) and EC50's were calculated by non-linear fit in Prism (GraphPad Software, La Jolla Calif.).
(§2) Samples were incubated overnight at 4° C. for 18 hours then centrifuged to pellet cells and supernatants were removed for testing on the KinExA. […] Detection solution used was R-PE-(Fab′)2 fragment goat anti-Human IgG(H+L) (Jackson Immuno Research, West Grove Pa.).

human insulin receptor [3] = biological target: T2, human insulin receptor; experiment: FACS, serum-starved CHO-K1 cells expressing human INSR, no insulin
Description: (§3) Twenty five microliter aliquots of cells were plated into 96 well plates, mixed with 25 ul of antibody or PPE and incubated on ice for 1 h.
(§4) The cells were then washed once with FACS buffer and the binding of the antibody was detected by the addition of 25 ul of an appropriate fluorochrome-conjugated secondary antibody. […] After a final 15 min incubation on ice the cells were washed and the pellets resuspended in FACS buffer. The cells were analyzed on a FACSCAN™ (Becton-Dickinson, Milipitas, Calif.) and the data analyzed in both FLOWJO™ (Treestar, Ashland, Oreg.) and Microsoft Excel™.

mouse insulin receptor [4] = biological target: T1, mouse insulin receptor; experiment: FACS, serum-starved CHO-K1 cells expressing mouse INSR, no insulin
[5] = biological target: T3, human insulin receptor complexed with human insulin (human, UniProt P06213 28-1382; P01308 25-54; P01308 90-110); experiment: FACS, CHO-K1 human INSR cells, signal with insulin divided by signal without insulin
T3 construct: whole, on cells;mature; also called hINSR-hINS complex; INS/INSR complex
Description: as §3, §4

[6] = biological target: T3, human insulin receptor complexed with …; experiment: FACS, serum-starved CHO-K1 cells expressing human INSR, with insulin
Description: as §3, §4

[7] = biological target: T3, human insulin receptor complexed with …; experiment: KinExA antibody depletion by hINSR8-CHOK1 cells, with 175 nM insulin
Description: as §1, §2

[8] = biological target: T4, mouse insulin receptor complexed with human insulin (mouse; human, UniProt P15208 28-1372; P01308 25-54; P01308 90-110); experiment: FACS, CHO-K1 mouse INSR cells, signal with insulin divided by signal without insulin
T4 construct: whole, on cells;mature; also called muINSR/hINS complex
Description: as §3, §4

mouse insulin receptor [9] = biological target: T1, mouse insulin receptor; experiment: cell-based or functional assay
human insulin receptor [10] = biological target: T2, human insulin receptor; experiment: cell-based or functional assay
[11] = biological target: T4, mouse insulin receptor complexed with …; experiment: FACS, serum-starved CHO-K1 cells expressing mouse INSR, with insulin
Description: as §3, §4

[12] = biological target: T3, human insulin receptor complexed with …; experiment: KinExA, affinity with insulin against affinity without insulin
Description: as §1, §2

human insulin receptor [13] = biological target: T2, human insulin receptor; experiment: cell-based or functional assay; remark: listed apart in the source
mouse insulin receptor [14] = biological target: T1, mouse insulin receptor; experiment: cell-based or functional assay; remark: listed apart in the source
human insulin receptor [15] = biological target: T2, human insulin receptor; experiment: cell-based or functional assay; remark: listed apart in the source
[16] = biological target: T3, human insulin receptor complexed with …; experiment: FACS, CHO-K1 human INSR cells, signal with insulin divided by signal without insulin [cont'd]
Description: as §3, §4

[17] = biological target: T4, mouse insulin receptor complexed with …; experiment: FACS, CHO-K1 mouse INSR cells, signal with insulin divided by signal without insulin [cont'd]
Description: as §3, §4

mouse insulin receptor [18] = biological target: T1, mouse insulin receptor; experiment: FACS, serum-starved CHO-K1 cells expressing mouse INSR, no insulin [cont'd]
human insulin receptor [19] = biological target: T2, human insulin receptor; experiment: FACS, serum-starved CHO-K1 cells expressing human INSR, no insulin [cont'd]
Description: as §3, §4

[20] = biological target: T3, human insulin receptor complexed with …; experiment: FACS, serum-starved CHO-K1 cells expressing human INSR, with insulin [cont'd]
Description: as §3, §4

human insulin receptor [21] = biological target: T2, human insulin receptor; experiment: cell-based or functional assay; remark: listed apart in the source
[22] = biological target: T4, mouse insulin receptor complexed with …; experiment: FACS, serum-starved CHO-K1 cells expressing mouse INSR, with insulin [cont'd]
Description: as §3, §4

human insulin receptor [23] = biological target: T2, human insulin receptor; experiment: cell-based or functional assay; remark: listed apart in the source

Binder	binding result (mouse insulin receptor [1])	Kd (human insulin receptor [2])	FACS area under log transformed data MFI (human insulin receptor [3])	FACS area under log transformed data MFI (mouse insulin receptor [4])	Kd [7]	FACS area under log transformed data MFI ratio (+insulin/-insulin) [8]	FACS area under log transformed data MFI [11]	Fold Improvement with Insulin [12]	pAKT assay, fold-decrease in insulin EC50 relative to isotype control Ab (human insulin receptor [21])	further results
Ab049 (antibody, V domains shown, also called XPA.015.165) VH: EVQLLESGGGLVQPGGSLRLSCAASGFTFSSNYMSWVRQAPGKGLEWVSSISGGSTYYADSRKGRFTISRDNSKNTLYLQMNSLRAEDTAVYYCARLDWSSGAFDIWGQGTLVTVSS VL: QSVLTQPPSASGTPGQRVTISCSGRSSNIGYNYVSWYQQLPGTAPKLLIYGNSNRPSGVPDRFSGSKSGTSASLAISGLRSEDEADYYCAAWDDSLSGPVFGGGTKLTVLG	no binding	–	–	–	–	–	–	–	–	–
Ab053 (antibody, V domains shown, also called XPA.015.196) VH: not shown VL: QSALTQPRSVSESPGKTVTISCTGSGGSIGSNYVQWYQQRPGSAPTTVIFEDNRRPSGVPDRFSGSIHSSSNSASLTISGLKTEDEADYYCQSYVGTIVVFGGGTKVTVL	–	0.148 nM	1330	1130	0.096 nM	0.51	574	1.5 fold	–	FACS area under log transformed data MFI ratio (+insulin/-insulin) [5]: 0.34; FACS area under log transformed data MFI [6]: 451; EC50 of pAkt activation without insulin, mouse INSR CHO-K1 cells (mouse insulin receptor [9]): 0.69 nM; relative maximum pAkt activation without insulin, mouse INSR CHO-K1 cells (mouse insulin receptor [9]): 48%; EC50 of pAkt activation without insulin, human INSR CHO-K1 cells (human insulin receptor [10]): 0.42 nM; relative maximum pAkt activation without insulin, human INSR CHO-K1 cells (human insulin receptor [10]): 64%
Ab080 (antibody, IgG2, V domains shown, also called XPA.015.246) VH: EVQLVESGGGVVQPGGSLRLSCAASGFTFDDYAMHWVRQAPGKGLEWVSLISWDGGSTYYADSVKGRFTISRDNSKNSLYLQMNSLRAEDTALYYCAKARGVVIIDYWGQGTLVTVSS VL: EIVLTQSPGTLSLSPGERATLSCRASQSLSSSFLAWYQQKPGQAPRLLIYGAGSRATGVPDRFSGSGYGTDFSLTISRLELEDFAVYYCQQYDRSQITFGQGTRLEIK	–	12 nM	–	–	0.68 nM	–	–	17.6 fold	8.4 fold	FACS area under log transformed data MFI ratio (+insulin/-insulin) [16]: 1.37; FACS area under log transformed data MFI ratio (+insulin/-insulin) [17]: 1.22; FACS area under log transformed data MFI (mouse insulin receptor [18]): 157; FACS area under log transformed data MFI (human insulin receptor [19]): 282; FACS area under log transformed data MFI [20]: 386; FACS area under log transformed data MFI [22]: 191
Ab062 (antibody, IgG2, V domains shown, also called XPA.015.211) VH: QVQLQQWGAGLLKPSETLSLTCAVYGGSFSGYYWSWIRQPPGKGLEWIGEINHSGSTNYNPSLKSRVTISVDTSKNQFSLKLSSVTAADTAVYYCARGPSGWYIREFDYWGQGTLVTVSS VL: QSVLTQPPSVSGAPGQRVTISCTGSSSNIGAGYDVHWYQQLPGTAPKLLIYGNSNRPSGVPDRFSGSKSGTSASLAITGLQAEDEADYYCQSYDSSLSGSGVFGGGTKVTVL	–	0.124 nM	1400	1450	0.108 nM	0.7	1010	1.1 fold	–	FACS area under log transformed data MFI ratio (+insulin/-insulin) [5]: 0.57; FACS area under log transformed data MFI [6]: 790; fold rise of insulin EC50 (pAkt) in the presence of Ab062 (human insulin receptor [23]): 6.6 fold; EC50 of pAkt activation without insulin, mouse INSR CHO-K1 cells (mouse insulin receptor [9]): 1.1 nM; relative maximum pAkt activation without insulin, mouse INSR CHO-K1 cells (mouse insulin receptor [9]): 34%; EC50 of pAkt activation without insulin, human INSR CHO-K1 cells (human insulin receptor [10]): 2.43 nM; relative maximum pAkt activation without insulin, human INSR CHO-K1 cells (human insulin receptor [10]): 52%
Ab047 (antibody, V domains shown, also called XPA.015.121) VH: EVQLLESGGGLVQPGGSLRLSCAASGFTFSSYAMSWVRQAPGKGLEWVSSISGGSTYYADSRKGRFTISRDNSKNTLYLQMNSLRAEDTAVYYCARHADQWPGSWFDPWGQGTLVTVSS VL: QSVLTQPPSASGTPGQRVTISCSGSSSNIGSNTVNWYQQLPGTAPKLLIYDNNKRPSGVPDRFSGSKSGTSASLAISGLRSEDEADYYCQSYDSSLSGWEVFGGGTKLTVLG	no binding	–	–	–	–	–	–	–	–	–

Now from value to binder, other results behind:

binding result (mouse insulin receptor [1])	Kd (human insulin receptor [2])	FACS area under log transformed data MFI (human insulin receptor [3])	FACS area under log transformed data MFI (mouse insulin receptor [4])	Kd [7]	FACS area under log transformed data MFI ratio (+insulin/-insulin) [8]	FACS area under log transformed data MFI [11]	Fold Improvement with Insulin [12]	pAKT assay, fold-decrease in insulin EC50 relative to isotype control Ab (human insulin receptor [21])	Binder	further results
–	–	204	462	–	0.37	170	–	–	Ab061 (antibody, IgG2, V domains shown, Negative modulator; also called XPA.015.209) VH: QMQLVQSGAEVKKTGESLKISCQGYGYRFTDNWIGWVRQMPGRGLEWMGIIYPGDSETRYSPSFQGQVTISADKSISTAYLEWSSLKASDTAMYYCARHAPLAVAGMALGDWGQGTLVTVSS VL: QTVVTQEPSFSVSPGGTVTLTCGLSSGSVSTGYSPGWYQQTPGQAPRTLVYNTNTRSSGVPDRFSGSILGNKAALTITGAQADDESDYYCALYMGSGTYVFGGGTKLTVL	fold change in insulin EC50 (pAKT) relative to isotype control mAb, 10 ug/mL Ab061 (human insulin receptor [13]): 269 fold
–	9.6 nM	–	–	0.496 nM	–	–	19.4 fold	6.7 fold	Ab079 (antibody, IgG2, V domains shown, also called XPA.015.245) VH: QMQLVQSGAEMKKPGASVKVSCKASGYSFSDYGITWVRQAPGQGPEWMGWISGYNGNTNYAQKFQDRVTMTTDTSTSTAYMELRSLKSDDTAVYFCARARGVWMFDNWGQGTLVTVSS VL: AIRMTQSPSTLSASVGDRVTITCRASQSISTWLAWYQQKPGKAPKLLIYTTSTLESGVPSRFSGSRSGTEFTLTISSLQPDDFATYYCQQYNSYPLTFGGGTKVEIK	fold-change in insulin EC50 (pAkt) relative to isotype control, 20 ug/ml Ab079, mouse INSR CHO-K1 cells (mouse insulin receptor [14]): 8 fold; fold-change in insulin EC50 (pAkt) relative to isotype control, 10 ug/ml Ab079, human INSR CHO-K1 cells (human insulin receptor [15]): 7 fold; FACS area under log transformed data MFI ratio (+insulin/-insulin) [16]: 1.3; FACS area under log transformed data MFI ratio (+insulin/-insulin) [17]: 1.39; FACS area under log transformed data MFI (mouse insulin receptor [18]): 154; FACS area under log transformed data MFI (human insulin receptor [19]): 296; FACS area under log transformed data MFI [20]: 385; FACS area under log transformed data MFI [22]: 215
binds	–	–	–	–	–	–	–	–	Ab045 (antibody, V domains shown, also called XPA.015.111) VH: EVQLLESGGGLVQPGGSLRLSCAASGFTFSSYWMSWVRQAPGKGLEWVSGISGSGGSTDYADSVKGRFTISRDNSKNTLYLQMNSLRAEDTAVYYCARELPAFWSAFDYWGQGTLVTVSF VL: not shown	–
–	–	–	–	0.2 nM	–	–	–	8.9 fold	Ab085 (antibody, IgG2, V domains shown, also called XPA.015.275) VH: EVQLVESGGGVVQPGRSLRLSCAASGFIFSSYGMHWVRQVPDKGLEWVAGISLRGSDNYYADSVKGRFTISRDNSKNTLYLQMNNLRPDDTAVYYCARGFRWPVTPFDHWGQGTLVTVSS VL: QTVVTQEPSFSVSPGGTVTLTCGLTSGSVSTRNFPGWYQQTPGQTLRTLIYNTNTRSSGVPDRFSGSILGNKAALTITGAQADDESDYYCVLYMTGDIWVFGGGTKVTVLG	fold-change in insulin EC50 (pAkt) relative to isotype control, 20 ug/ml Ab085, mouse INSR CHO-K1 cells (mouse insulin receptor [14]): 8 fold; fold-change in insulin EC50 (pAkt) relative to isotype control, 1 ug/ml Ab085, human INSR CHO-K1 cells (human insulin receptor [15]): 3 fold; fold-change in insulin EC50 (pAkt) relative to isotype control, 10 ug/ml Ab085, human INSR CHO-K1 cells (human insulin receptor [15]): 9 fold
